Laboratory results: paper PMC4336627

Target: Flag-6xHis-TET2^CD (human)
Experiment: pull-down

stoichiometry N: 1
Substance: Flag-WT1 (purified recombinant) (from UniProt P19544 1-449) (natural protein)
